# Laboratory results from patent US20140322759.
# Substitutions are numbered along the chain they refer to.
# Experiments:
# Experiment in all cases: EMSA
# [1] = biological target: T1, phi29 DNA polymerase V51A V51A (Bacillus phage phi29) (UniProt P03680); details: SD 10.8; unit not given (μM in assay); pH 7.9, 66 mM K-acetate, 30 C
# T1 sequence: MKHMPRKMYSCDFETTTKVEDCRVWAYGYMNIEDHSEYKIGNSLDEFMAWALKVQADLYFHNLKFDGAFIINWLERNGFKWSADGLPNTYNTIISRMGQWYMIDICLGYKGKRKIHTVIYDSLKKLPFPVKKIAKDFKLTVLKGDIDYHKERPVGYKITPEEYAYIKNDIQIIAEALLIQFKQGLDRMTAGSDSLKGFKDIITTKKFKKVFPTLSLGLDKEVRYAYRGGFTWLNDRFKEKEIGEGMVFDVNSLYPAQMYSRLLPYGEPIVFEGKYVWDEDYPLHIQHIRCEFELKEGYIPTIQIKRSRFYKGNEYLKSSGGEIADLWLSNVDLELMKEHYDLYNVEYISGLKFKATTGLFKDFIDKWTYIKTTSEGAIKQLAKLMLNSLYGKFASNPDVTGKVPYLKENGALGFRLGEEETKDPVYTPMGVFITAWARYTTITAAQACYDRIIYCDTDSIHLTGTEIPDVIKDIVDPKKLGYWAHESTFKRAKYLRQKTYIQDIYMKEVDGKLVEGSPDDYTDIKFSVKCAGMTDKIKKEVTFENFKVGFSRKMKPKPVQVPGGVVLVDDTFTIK
# [2] = biological target: T2, phi29 DNA polymerase E221K E221K (Bacillus phage phi29) (UniProt P03680); details: SD 18.4; unit not given (μM in assay); pH 7.9, 66 mM K-acetate, 30 C
# T2 sequence: T1 sequence with A51V, E221K
# [3] = biological target: T3, phi29 DNA polymerase wild-type (Bacillus phage phi29) (UniProt P03680); details: SD 5.7; unit not printed in table (enzyme titrated 0-600 μM, 2 μM DNA as printed); Tris-acetate pH 7.9, 66 mM K-acetate, no Mg listed, 30 C
# T3 sequence: T1 sequence with A51V
# [4] = biological target: T4, phi29 DNA polymerase Q497P Q497P (Bacillus phage phi29) (UniProt P03680); details: SD 50.2; unit not given (μM in assay); pH 7.9, 66 mM K-acetate, 30 C
# T4 sequence: T1 sequence with A51V, Q497P
sequence,measurement,setting,value
GATCACAGTGAGTAC / TCTATTGTACTCACTGTGATC [15-mer/21-mer primer/template],Kd,[1],52 µM
same,Kd,[2],67 µM
same,Kd,[3],76 µM
same,Kd,[4],73 µM
